Reference: publication PMC3787845
Values belong to the molecule of their own block, whether it stands above or below them.

Experiments:
[1] = biological target: His6-ChpT-N63R (Caulobacter crescentus); assay: SEC
[2] = biological target: His6-ChpT-S40V (Caulobacter crescentus); assay: SEC
[3] = biological target: His6-ChpT-L64D (Caulobacter crescentus); assay: SEC
[4] = biological target: His6-ChpT-G45R (Caulobacter crescentus); assay: SEC
[5] = biological target: His6-ChpT-D47A (Caulobacter crescentus); assay: SEC
[6] = biological target: His6-ChpT-S44Y (Caulobacter crescentus); assay: SEC
[7] = biological target: His6-ChpT (Caulobacter crescentus); assay: SEC
[8] = biological target: His6-ChpT-D60A (Caulobacter crescentus); assay: SEC
[9] = biological target: His6-ChpT-L48M (Caulobacter crescentus); assay: SEC
[10] = biological target: His6-ChpT-A41R (Caulobacter crescentus); assay: SEC
[11] = biological target: His6-ChpT-A41R (Caulobacter crescentus); assay: SPR

Molecule: His6-ChpT-G45R (natural protein)
- stoichiometry N [4]: 2

Molecule: His6-ChpT-S44Y (natural protein)
- stoichiometry N [6]: 2

Molecule: His6-ChpT (natural protein)
- stoichiometry N [7]: 2

Molecule: His6-ChpT-D60A (natural protein)
- stoichiometry N [8]: 2

Molecule: His6-ChpT-L48M (natural protein)
- stoichiometry N [9]: 2

Molecule: His6-ChpT-A41R (natural protein)
- stoichiometry N [10]: 2

Other lines, results leading:

- stoichiometry N [1]: 2
Molecule: His6-ChpT-N63R (natural protein)

- stoichiometry N [2]: 2
Molecule: His6-ChpT-S40V (natural protein)

- stoichiometry N [3]: 2
Molecule: His6-ChpT-L64D (natural protein)

- stoichiometry N [5]: 2
Molecule: His6-ChpT-D47A (natural protein)

- Kd [11]: 397 µM
B1: CckA receiver domain (CckA-RD, amino acids 571–691) (domain or fragment)
chain: GRILFVEDEDAVRSVAARLLRARGYEVLEAADGEEALIIAEENAGTIDLLISDVIMPGIDGPTLLKKARGYLGTAPVMFISGYAEAEFSDLLEGETGVTFLPKPIDIKTLAERVKQQLQAA
